Substrate in data set [1]: Nc1ccc(O)c(C(=O)O)c1
Description: Drug uptake in human OATP2B1 expressed HEK293 cells assessed as net uptake. The format is ADME, cell-based.

Substrate in data set [2]: Nc1ccc(O)c(C(=O)O)c1
Description: Drug uptake in human OATP1B1 expressed HEK293 cells assessed as net uptake. It is filed as ADME, cell-based.

B1: Solute carrier organic anion transporter family member 2B1 (Homo sapiens) (protein)
chain: MGPRIGPAGEVPQVPDKETKATMGTENTPGGKASPDPQDVRPSVFHNIKLFVLCHSLLQLAQLMISGYLKSSISTVEKRFGLSSQTSGLLASFNEVGNTALIVFVSYFGSRVHRPRMIGYGAILVALAGLLMTLPHFISEPYRYDNTSPEDMPQDFKASLCLPTTSAPASAPSNGNCSSYTETQHLSVVGIMFVAQTLLGVGGVPIQPFGISYIDDFAHNSNSPLYLGILFAVTMMGPGLAFGLGSLMLRLYVDINQMPEGGISLTIKDPRWVGAWWLGFLIAAGAVALAAIPYFFFPKEMPKEKRELQFRRKVLAVTDSPARKGKDSPSKQSPGESTKKQDGLVQIAPNLTVIQFIKVFPRVLLQTLRHPIFLLVVLSQVCLSSMAAGMATFLPKFLERQFSITASYANLLIGCLSFPSVIVGIVVGGVLVKRLHLGPVGCGALCLLGMLLCLFFSLPLFFIGCSSHQIAGITHQTSAHPGLELSPSCMEACSCPLDGFNPVCDPSTRVEYITPCHAGCSSWVVQDALDNSQVFYTNCSCVVEGNPVLAGSCDSTCSHLVVPFLLLVSLGSALACLTHTPSFMLILRGVKKEDKTLAVGIQFMFLRILAWMPSPVIHGSAIDTTCVHWALSCGRRAVCRYYNNDLLRNRFIGLQFFFKTGSVICFALVLAVLRQQDKEARTKESRSSPAVEQQLLVSGPGKKPEDSRV
Take B1: in data set [1], the Km (in general, the concentration of substrate that gives half-maximal velocity) was 189 µM and the Vmax (as a rule, the top rate of the reaction or transport when substrate is in excess) came out at 3.72e-05 µmol/min.

B2: Solute carrier organic anion transporter family member 1B1 (Homo sapiens) (protein)
chain: MDQNQHLNKTAEAQPSENKKTRYCNGLKMFLAALSLSFIAKTLGAIIMKSSIIHIERRFEISSSLVGFIDGSFEIGNLLVIVFVSYFGSKLHRPKLIGIGCFIMGIGGVLTALPHFFMGYYRYSKETNINSSENSTSTLSTCLINQILSLNRASPEIVGKGCLKESGSYMWIYVFMGNMLRGIGETPIVPLGLSYIDDFAKEGHSSLYLGILNAIAMIGPIIGFTLGSLFSKMYVDIGYVDLSTIRITPTDSRWVGAWWLNFLVSGLFSIISSIPFFFLPQTPNKPQKERKASLSLHVLETNDEKDQTANLTNQGKNITKNVTGFFQSFKSILTNPLYVMFVLLTLLQVSSYIGAFTYVFKYVEQQYGQPSSKANILLGVITIPIFASGMFLGGYIIKKFKLNTVGIAKFSCFTAVMSLSFYLLYFFILCENKSVAGLTMTYDGNNPVTSHRDVPLSYCNSDCNCDESQWEPVCGNNGITYISPCLAGCKSSSGNKKPIVFYNCSCLEVTGLQNRNYSAHLGECPRDDACTRKFYFFVAIQVLNLFFSALGGTSHVMLIVKIVQPELKSLALGFHSMVIRALGGILAPIYFGALIDTTCIKWSTNNCGTRGSCRTYNSTSFSRVYLGLSSMLRVSSLVLYIILIYAMKKKYQEKDINASENGSVMDEANLESLNKNKHFVPSAGADSETHC
For the protein B2, in data set [2], the Km came to 55.1 µM and the Vmax amounted to 2.83e-05 µmol/min.
